Measurements as given in patent US20190211057A1 (NATIONAL YANG MING UNIVERSITY, published 2019).
One block for each binder: values may come before it. Ends that are not written are not given here.

Assays:
[1] = target: T1, integrin αvβ3 receptor on cells (HUVEC, U87MG, MCF-7, ES-2-luc) (human), P06756; test: competitive cell uptake on ES-2-luc cells, cRGDfk at 1000-fold molar excess; labelled competitor ^111In-DTPA-RGD4C-yCD; conditions: remark: other sources report otherwise
T1 chain 1: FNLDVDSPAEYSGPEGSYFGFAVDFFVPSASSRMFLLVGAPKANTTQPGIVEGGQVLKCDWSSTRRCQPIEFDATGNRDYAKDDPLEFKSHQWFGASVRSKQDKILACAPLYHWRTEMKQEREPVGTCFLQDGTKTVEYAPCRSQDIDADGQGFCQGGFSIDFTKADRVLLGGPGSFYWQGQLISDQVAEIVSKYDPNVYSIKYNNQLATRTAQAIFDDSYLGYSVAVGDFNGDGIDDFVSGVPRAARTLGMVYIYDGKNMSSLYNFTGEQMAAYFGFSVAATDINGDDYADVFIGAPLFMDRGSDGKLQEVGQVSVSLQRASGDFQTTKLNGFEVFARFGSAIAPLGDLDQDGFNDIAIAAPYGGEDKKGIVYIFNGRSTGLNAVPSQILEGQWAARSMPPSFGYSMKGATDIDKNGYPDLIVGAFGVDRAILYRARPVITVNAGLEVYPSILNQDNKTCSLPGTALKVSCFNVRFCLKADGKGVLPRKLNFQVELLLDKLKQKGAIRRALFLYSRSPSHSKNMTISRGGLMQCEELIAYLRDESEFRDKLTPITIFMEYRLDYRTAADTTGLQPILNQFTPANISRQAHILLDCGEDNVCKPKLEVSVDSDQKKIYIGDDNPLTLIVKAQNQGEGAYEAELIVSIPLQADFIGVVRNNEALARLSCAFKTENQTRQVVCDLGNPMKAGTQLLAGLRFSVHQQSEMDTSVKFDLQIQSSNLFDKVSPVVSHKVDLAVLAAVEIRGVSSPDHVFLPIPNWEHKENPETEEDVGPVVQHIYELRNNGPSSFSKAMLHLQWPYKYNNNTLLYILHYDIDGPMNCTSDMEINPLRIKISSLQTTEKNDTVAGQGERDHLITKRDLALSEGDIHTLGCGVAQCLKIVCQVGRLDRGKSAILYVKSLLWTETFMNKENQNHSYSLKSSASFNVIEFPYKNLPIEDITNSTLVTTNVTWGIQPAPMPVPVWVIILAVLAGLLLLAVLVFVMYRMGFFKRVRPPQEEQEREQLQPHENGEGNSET
T1 chain 2: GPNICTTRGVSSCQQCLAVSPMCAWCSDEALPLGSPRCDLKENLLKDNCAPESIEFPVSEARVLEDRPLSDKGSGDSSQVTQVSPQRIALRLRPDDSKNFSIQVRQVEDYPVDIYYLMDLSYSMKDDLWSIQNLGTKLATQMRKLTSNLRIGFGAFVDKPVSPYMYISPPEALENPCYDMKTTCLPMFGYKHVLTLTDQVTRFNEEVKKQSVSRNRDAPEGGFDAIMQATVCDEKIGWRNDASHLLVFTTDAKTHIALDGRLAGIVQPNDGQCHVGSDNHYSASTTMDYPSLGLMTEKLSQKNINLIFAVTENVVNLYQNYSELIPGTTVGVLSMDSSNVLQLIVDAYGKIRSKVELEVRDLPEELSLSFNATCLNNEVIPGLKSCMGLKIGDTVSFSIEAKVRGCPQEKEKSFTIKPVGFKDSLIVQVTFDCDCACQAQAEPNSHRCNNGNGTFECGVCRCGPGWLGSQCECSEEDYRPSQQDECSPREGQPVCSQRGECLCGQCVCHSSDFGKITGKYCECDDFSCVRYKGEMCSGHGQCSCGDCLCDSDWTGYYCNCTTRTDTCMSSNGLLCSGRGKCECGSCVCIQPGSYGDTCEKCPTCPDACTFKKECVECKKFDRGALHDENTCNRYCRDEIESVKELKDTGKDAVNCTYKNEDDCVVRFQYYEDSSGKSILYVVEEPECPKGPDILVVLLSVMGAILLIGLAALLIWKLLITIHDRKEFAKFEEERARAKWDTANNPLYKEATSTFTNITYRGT

[2] = target: T1, integrin αvβ3 receptor on cells (HUVEC, …); test: competitive cell uptake on HUVEC cells, cRGDfk at 1000-fold molar excess; labelled ^111In-DTPA-RGD4C-yCD; conditions: remark: other sources report otherwise
[3] = target: T1, integrin αvβ3 receptor on cells (HUVEC, …); test: competitive cell uptake on MCF-7 cells (low αvβ3), cRGDfk at 1000-fold molar excess; labelled ^111In-DTPA-RGD4C-yCD; conditions: remark: other sources report otherwise
[4] = target: T2, integrin αvβ3 receptor on cells (HUVEC, U87MG, MCF-7, ES-2-luc) (human, UniProt P06756 31-1048; P05106 27-788); test: cell ELISA on MCF-7 cells (low αvβ3 expression), anti-His-HRP
T2 construct: whole, on cells; HUVEC and U87MG express αvβ3 highly, MCF-7 has low or no expression and ES-2-luc moderate expression; also called integrin αvβ3 on cells; integrin receptor on the cell membrane
Excerpt: (§1) After reacted with anti-His-HRP antibody and TMB substrate, ELISA reader (OD450 nm) is used to detect the amount of recombinant protein bound to the cells, and the binding curve is drawn. The nonlinear curve of the prism software is used to make a diagram and calculate the dissociation constant (Kd).
(§2) The anti-His6-Tag-HRP antibody and TMB show the color reagent to detect the amount of recombinant protein bound to the cell, then the dissociation constant Kd value of the recombinant protein and the integrin αᵥβ₃ receptor is calculated and a binding curve is drawn.

[5] = target: T2, integrin αvβ3 receptor on cells (HUVEC, …); test: cell-based or functional assay
[6] = target: T2, integrin αvβ3 receptor on cells (HUVEC, …); test: cell ELISA on HUVEC cells, anti-His-HRP
Excerpt: as §1, §2

[7] = target: T2, integrin αvβ3 receptor on cells (HUVEC, …); test: cell ELISA on U87MG cells (repeats Table 2)
[8] = target: T2, integrin αvβ3 receptor on cells (HUVEC, …); test: cell-based or functional assay; remark: listed apart in the source
[9] = target: T2, integrin αvβ3 receptor on cells (HUVEC, …); test: cell ELISA, HUVEC against MCF-7
[10] = target: T2, integrin αvβ3 receptor on cells (HUVEC, …); test: cell-based or functional assay; remark: listed apart in the source
[11] = target: T2, integrin αvβ3 receptor on cells (HUVEC, …); test: cell ELISA on U87MG cells, anti-His-HRP
Excerpt: as §1, §2

integrin αvβ3 receptor [12] = target: T3, integrin αvβ3 receptor (UniProt P06756 31-992; P05106 27-718); test: ELISA on integrin αvβ3 receptor, one site-specific binding fit
T3 construct: also called αvβ3 integrin; αvβ3 integrin receptor
Excerpt: The curve and receptor binding ability parameters (see FIG. 19 and Table 14) are fitted by the binding ability of DTPA-modified protein and integrin αᵥβ₃ receptor through the One site-Specific binding formula in the Graph prism program.

[13] = target: T2, integrin αvβ3 receptor on cells (HUVEC, …); test: cell ELISA, U87MG against MCF-7
integrin αvβ3 receptor [14] = target: T3, integrin αvβ3 receptor; test: ELISA on integrin αvβ3 receptor, anti-His6-HRP detection, curve fit
Excerpt: The dissociation constant Kd is obtained by prism software with curve fitting method.

[15] = target: T2, integrin αvβ3 receptor on cells (HUVEC, …); test: cell ELISA on HUVEC cells (repeats Table 2)
integrin αvβ3 receptor [16] = target: T3, integrin αvβ3 receptor; test: ELISA on integrin αvβ3 receptor (repeats Table 14)
[17] = target: T2, integrin αvβ3 receptor on cells (HUVEC, …); test: cell ELISA on MCF-7 cells (repeats Table 2)
integrin αvβ3 receptor [18] = target: T3, integrin αvβ3 receptor; test: ELISA on integrin αvβ3 receptor, after simulated labelling conditions
integrin αvβ3 receptor [19] = target: T3, integrin αvβ3 receptor; test: ELISA on integrin αvβ3 receptor, after simulated labelling and challenge with 10-fold molar excess of EDTA
integrin αvβ3 receptor [20] = target: T3, integrin αvβ3 receptor; test: ELISA on integrin αvβ3 receptor; paragraph 109 says yCD can not be bound before and after modification

- percent decrease of uptake [1]: 70%
- percent decrease of uptake [2]: 65%
- percent decrease of uptake [3]: 45%
B1: cRGDfk (peptide)
peptide: RGDFK
modifications: not fully specified (residues 4, 5); also: prefix c and lower-case f, k not explained

- Kd [4]: 0.366 µM
- Kd [6]: 0.0475 µM
- Kd [7]: 0.0537 µM
- fold cell binding ability against MCF-7 [9]: ~7.7 fold
- Kd [11]: 0.0537 µM
- Kd (integrin αvβ3 receptor [12]): 0.0207 µM
- fold cell binding ability against MCF-7 [13]: ~6.8 fold
- Kd (integrin αvβ3 receptor [14]): 0.0395 µM
- Kd [15]: 0.0475 µM
- Kd (integrin αvβ3 receptor [16]): 0.0207 µM
- Kd [17]: 0.366 µM
B2: RGD4C-yCD (other)
chain: MACDCRGDCFCVTGGMASKWDQKGMDIAYEEAALGYKEGGVPIGGCLINNKDGSVLGRGHNMRFQKGSATLHGEISTLENCGRLEGKVYKDTTLYTTLSPCDMCTGAIIMYGIPRCVVGENVNFKSKGEKYLQTRGHEVVVVDDERCKKIMKQFIDERPQDWFEDIGELEHHHHHH
notes: Fusion of the RGD4C peptide with yeast cytosine deaminase, expressed from pET28a(+) in E. coli and detected by its His6 tag; also called RGD4C-yCD recombinant protein
- protein reaction concentration IC50 of cytotoxic effect, MTT, HUVEC cells, 100 µM 5-FC [5]: 0.209 µM
- protein reaction concentration IC50 of cytotoxic effect, MTT, U87MG cells, 100 µM 5-FC [5]: 0.177 µM
- IC50 of 5-FC, MTT cytotoxicity, HUVEC cells incubated with 500 nM protein then washed (repeats Table 3) [8]: 23.6 µM
- IC50 of 5-FC, MTT cytotoxicity, MCF-7 cells (low αvβ3) incubated with 500 nM protein then washed (repeats Table 3) [8]: 5130 µM
- IC50 of 5-FC, MTT cytotoxicity, U87MG cells incubated with 500 nM protein then washed (repeats Table 3) [8]: 37.1 µM
- IC50 of 5-FC, MTT cytotoxicity, HUVEC cells incubated with 500 nM protein then washed [10]: 23.6 µM
- IC50 of 5-FC, MTT cytotoxicity, MCF-7 cells (low αvβ3) incubated with 500 nM protein then washed [10]: 5130 µM
- IC50 of 5-FC, MTT cytotoxicity, U87MG cells incubated with 500 nM protein then washed [10]: 37.1 µM

- Kd (integrin αvβ3 receptor [18]): 0.0254 µM
- Kd (integrin αvβ3 receptor [19]): 0.0346 µM
B3: In-DTPA-RGD4C-yCD (other)
chain: B2 chain
modifications: DTPA on primary amines, loaded with the stable isotope of indium
notes: also called In-DTPA- RGD4C-yCD 10x EDTA

- binding result (integrin αvβ3 receptor [20]): no binding
B4: DTPA-yCD (enzyme)
chain: MVVTGGMASKWDQKGMDIAYEEAALGYKEGGVPIGGCLINNKDGSVLGRGHNMRFQKGSATLHGEISTLENCGRLEGKVYKDTTLYTTLSPCDMCTGAIIMYGIPRCVVGENVNFKSKGEKYLQTRGHEVVVVDDERCKKIMKQFIDERPQDWFEDIGELEHHHHHH
modifications: DTPA on primary amines, 1.16 DTPA per protein on average
